The results in this text go back to patent publication US7981863.

The target of the test is VEGF receptor Flk-1 on rat neural stem cells (rat) (UniProt O08775). Nature of the test: cell-based or functional assay.
Sequence of VEGF receptor Flk-1 on rat neural stem cells (rat) (O08775 20-1343): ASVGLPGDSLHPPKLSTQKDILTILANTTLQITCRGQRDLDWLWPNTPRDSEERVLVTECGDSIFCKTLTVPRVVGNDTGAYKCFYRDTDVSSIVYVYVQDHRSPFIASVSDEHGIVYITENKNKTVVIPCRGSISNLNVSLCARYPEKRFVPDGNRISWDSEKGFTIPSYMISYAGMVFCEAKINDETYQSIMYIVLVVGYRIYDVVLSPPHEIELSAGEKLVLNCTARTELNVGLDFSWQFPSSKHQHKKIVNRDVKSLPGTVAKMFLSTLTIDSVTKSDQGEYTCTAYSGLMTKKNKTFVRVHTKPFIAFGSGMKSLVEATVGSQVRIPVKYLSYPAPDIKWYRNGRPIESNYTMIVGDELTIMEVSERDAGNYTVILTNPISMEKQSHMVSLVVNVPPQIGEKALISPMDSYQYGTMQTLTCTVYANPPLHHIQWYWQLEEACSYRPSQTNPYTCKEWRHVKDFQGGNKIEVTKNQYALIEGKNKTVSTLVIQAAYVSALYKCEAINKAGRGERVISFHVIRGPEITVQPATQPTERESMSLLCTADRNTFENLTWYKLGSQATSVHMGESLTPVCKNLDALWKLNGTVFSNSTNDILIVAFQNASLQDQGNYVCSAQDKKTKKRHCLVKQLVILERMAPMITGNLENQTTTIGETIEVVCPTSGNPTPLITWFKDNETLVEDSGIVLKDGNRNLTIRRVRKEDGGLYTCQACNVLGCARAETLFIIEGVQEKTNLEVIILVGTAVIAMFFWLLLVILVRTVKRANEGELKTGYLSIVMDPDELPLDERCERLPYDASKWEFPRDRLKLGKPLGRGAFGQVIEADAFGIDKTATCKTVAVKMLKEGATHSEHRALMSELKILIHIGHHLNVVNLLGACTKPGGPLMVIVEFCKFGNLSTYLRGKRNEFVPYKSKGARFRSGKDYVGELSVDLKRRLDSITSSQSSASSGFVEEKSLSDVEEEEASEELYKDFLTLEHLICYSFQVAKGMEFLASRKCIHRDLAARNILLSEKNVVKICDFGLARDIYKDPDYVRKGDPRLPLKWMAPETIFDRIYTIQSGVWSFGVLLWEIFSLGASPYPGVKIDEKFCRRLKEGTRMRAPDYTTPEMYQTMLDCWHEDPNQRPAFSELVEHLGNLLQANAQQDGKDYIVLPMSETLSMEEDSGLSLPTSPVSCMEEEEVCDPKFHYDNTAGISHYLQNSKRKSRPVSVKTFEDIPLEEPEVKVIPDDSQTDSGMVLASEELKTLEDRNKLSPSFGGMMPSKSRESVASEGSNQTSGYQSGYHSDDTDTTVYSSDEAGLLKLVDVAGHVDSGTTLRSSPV

On to “mouse recombinant VEGF164 (from UniProt Q00731 27-190) (ligand)”, for which the ED50 of expansion of neural stem cell cultures (cell number after 7 days) is 10 ng/mL and the concentration of maximal stimulation of neural stem cell expansion was 50 ng/mL.
